Assay results reported in patent US20060160174A1, “Modified l49-sfv exhibiting increased stability and methods of use thereof” (priority 2002, published 2006).
Positions count from the first letter of the chain named. Numbers in names are those of the source.

B1: FP930: L49-sFv-bL with mutation K H39 Q (protein)
scFv: MEVQLQESGPSLVKPSQTLSLTCSVTGDSITSGYWNWIRQFPGNKLEYMGYISDSGITYYNPSLKSRISITRDTSKNQYYLQLNFVTAEDTATYNCARRTLATYYAMDYWGQGTSVTVSSGSTSGSGKPGSGEGSTKGDFVMTQTPLSLPVSLGDQASISCRASQSLVHSNGNTYLHWYLQKPGQSPKLLIYRVSNRFSGVPDRFSGSGSGTDFTLKISRVEAEDLGVYFCSQSTHVPPTFGGGTKLEIKRTPVSEKQLAEVVANTITPLMKAQSVPGMAVAVIYQGKPHYYTFGKADIAANKPVTPQTLFELGSISKTFTGVLGGDAIARGEISLDDAVTRYWPQLTGKQWQGIRMLDLATYTAGGLPLQVPDEVTDNASLLRFYQNWQPQWKPGTTRLYANASIGLFGALAVKPSGMPYEQAMTTRVLKPLKLDHTWINVPKAEEAHYAWGYRDGKAVRVSPGMLDAQAYGVKTNVQDMANWVMANMAPENVADASLKQGIALAQSRYWRIGSMYQGLGWEMLNWPVEANTVVETSFGNVALAPLPVAEVNPPAPPVKASWVHKTGSTGGFGSYVAFIPEKQIGIVMLANTSYPNPARVEAAYHILEALQ
B2: FP945: L49-sFv-bL with mutation F H82B S (protein)
scFv: B1 scFv with Q40K, F85S
B3: FP950: L49-sFv-bL with mutation N H91 Y (protein)
scFv: B1 scFv with Q40K, N95Y
B4: FP95: parental (wt) L49-sFv-bL fusion protein refolded from E. coli inclusion bodies (protein)
scFv: B1 scFv with Q40K
B5: FP999: triple mutant K H39 Q, F H82B S, N H91 Y in reverse bL-L49-sFv orientation (β-lactamase at amino terminus) (protein)
chain: TPVSEKQLAEVVANTITPLMKAQSVPGMAVAVIYQGKPHYYTFGKADIAANKPVTPQTLFELGSISKTFTGVLGGDAIARGEISLDDAVTRYWPQLTGKQWQGIRMLDLATYTAGGLPLQVPDEVTDNASLLRFYQNWQPQWKPGTTRLYANASIGLFGALAVKPSGMPYEQAMTTRVLKPLKLDHTWINVPKAEEAHYAWGYRDGKAVRVSPGMLDAQAYGVKTNVQDMANWVMANMAPENVADASLKQGIALAQSRYWRIGSMYQGLGWEMLNWPVEANTVVETSFGNVALAPLPVAEVNPPAPPVKASWVHKTGSTGGFGSYVAFIPEKQIGIVMLANTSYPNPARVEAAYHILEALQMHGTKLMEVQLQESGPSLVKPSQTLSLTCSVTGDSITSGYWNWIRQFPGNKLEYMGYISDSGITYYNPSLKSRISITRDTSKNQYYLQLNSVTAEDTATYYCARRTLATYYAMDYWGQGTSVTVSSGSTSGSGKPGSGEGSTKGDFVMTQTPLSLPVSLGDQASISCRASQSLVHSNGNTYLHWYLQKPGQSPKLLIYRVSNRFSGVPDRFSGSGSGTDFTLKISRVEAEDLGVYFCSQSTHVPPTFGGGTKLEIKR
B6: FP990: L49-sFv-bL triple mutant K H39 Q, F H82B S, N H91 Y (protein)
scFv: B1 scFv with F85S, N95Y
B7: FP960: L49-sFv-bL double mutant F H82B S, N H91 Y (protein)
scFv: B1 scFv with Q40K, F85S, N95Y
B8: FP965: L49-sFv-bL double mutant K H39 Q, N H91 Y (protein)
scFv: B1 scFv with N95Y

What was measured:
[1] = target: T1, soluble p97 (amino acids 20-710 of human p97 precursor) (Homo sapiens, UniProt P08582); experiment: solid-phase p97 binding assay of crude refolded fusion proteins (refolding efficiency); conditions: crude refolds normalized on β-lactamase activity
T1 construct: Soluble p97 (amino acids 20-710 of human p97 precursor); 6xHis; made in house
T1 sequence (P08582 20-710): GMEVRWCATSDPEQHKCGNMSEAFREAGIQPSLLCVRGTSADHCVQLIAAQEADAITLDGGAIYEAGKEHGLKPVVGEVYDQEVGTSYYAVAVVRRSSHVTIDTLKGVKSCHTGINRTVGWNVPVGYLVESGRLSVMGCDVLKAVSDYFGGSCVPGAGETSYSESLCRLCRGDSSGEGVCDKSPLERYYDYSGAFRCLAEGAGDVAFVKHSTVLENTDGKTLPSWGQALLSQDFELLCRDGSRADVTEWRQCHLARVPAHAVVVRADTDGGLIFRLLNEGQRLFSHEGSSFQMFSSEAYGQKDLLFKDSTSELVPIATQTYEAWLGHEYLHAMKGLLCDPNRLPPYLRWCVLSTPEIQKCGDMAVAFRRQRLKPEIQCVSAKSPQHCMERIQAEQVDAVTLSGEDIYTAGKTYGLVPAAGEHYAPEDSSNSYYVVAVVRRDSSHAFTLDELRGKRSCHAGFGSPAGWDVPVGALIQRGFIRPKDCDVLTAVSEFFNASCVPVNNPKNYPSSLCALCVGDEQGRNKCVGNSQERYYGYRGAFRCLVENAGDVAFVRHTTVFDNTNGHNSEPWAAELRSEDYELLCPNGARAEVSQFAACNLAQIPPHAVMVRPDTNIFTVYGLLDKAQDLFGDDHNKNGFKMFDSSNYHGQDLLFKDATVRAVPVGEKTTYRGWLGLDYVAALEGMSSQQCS
Method: For small scale expression BL21([DE3) (Novagen) were transformed with parental and mutant constructs and single colonies was used to inoculate 100 ml Terrific Broth II (TB) (QBIOGENE). Cells were induced at an OD of 1.0 with 1 mM IPTG (Sigma). Cells were harvested following overnight incubation and inclusion bodies were purified from the cell extracts using B-Per (Novagen) according to the manufacturers instructions. Inclusion body pellets were resuspended in 8 M urea, 2 mM DTT, 50 mM Tris.Cl pH 8.0 at a concentration of 50 mg/ml. Inclusion bodies were refolded overnight in a 50-fold dilution of 2 M urea, 0.3 M L-arginine, 50 mM Tris.Cl pH 8.0, 1 mM reduced glutathione, 0.1 mM oxidized glutathione. Protein was then dialyzed into PBS and fusion protein concentration was determined by measuring β-lactamase activity using colorimetric substrate nitrocefin.
Soluble p97 (amino acids 20-710 of human p97 precursor) was cloned into pSecTag2 (Invitrogen), incorporating an Ig Kappa leader sequence and a 6× his tag, and transfected into CHO cells. Stable transformants were selected and secreted protein was purified from conditioned medium on a metal chelate affinity column. Assays were performed by coating polystyrene 96-well plates with 2 μg/ml soluble p97 in PBS overnight. The plates were blocked by adding 1% bovine serum albumin in PBS for 1 hour at room temperature. Plates were emptied and fresh blocking reagent containing serial dilutions of L49-sFv-bL samples was added. Following 1 hour at room temperature the plates were washed and developed with 0.1 ml of colorimetric β-lactamase substrate nitrocefin solution at 0.1 mM in PBS containing 1% DMSO. Absorbance measurements were read in an ELISA plate reader using a 490 nm filter with 610 m as the reference wavelength.
The unusual residues in the L49 scFv framework were mutated to the most frequently occurring residue for that position in the Kabat database (Chowdhury et al., 1998, J. Mol. Biol. 281, 917-928). […] Binding to p97 was then determined using a solid-phase binding assay as described in Section 6.1.3, supra.

Recombinant p97 = target: T2, Recombinant p97 (Homo sapiens, UniProt P08582); experiment: binding affinity by surface plasmon resonance (Biacore 2000); conditions: 25° C., immobilized p97, 1:1 model, error in last digit in parentheses
T2 construct: Soluble p97 (amino acids 20-710 of human p97 precursor); 6xHis; made in house
T2 sequence (P08582 20-710): T1 sequence (P08582 20-710)
Method: The buffer used in the study was PBS, 0.005% P20, 0.2 mg/mi BSA. Antigen was immobilized on one flow cell surface of a CM5 sensor chip and the others were left blank to serve as reference surfaces. For each scFv, triplicates of 0, 0.5, 2.8, 8.3, 25, 75 and 225 nM were injected across the immobilized antigen. The association and dissociation phases were monitored for 1 and 20 minutes, respectively. The antigen surface was regenerated with four 18-second pulses of 2.5 mM NaOH between injections.
The binding affinities of double mutants FP960 and FP965 and triple mutants FP990 and FP999 were compared to the parental molecule by surface plasmon resonance. Recombinant p97 was immobilized on a BIACore CM5 sensor chip and varying concentrations of each scFv fusion protein were injected across the chip in triplicate.

purified p97 antigen = target: T3, purified p97 antigen (Homo sapiens, UniProt P08582); experiment: size exclusion chromatography (SEC) binding assay, 2:1 p97 antigen to L49-sFv-bL; conditions: purified protein after ion exchange
T3 construct: Soluble p97 (amino acids 20-710 of human p97 precursor); 6xHis; made in house
T3 sequence (P08582 20-710): T1 sequence (P08582 20-710)
Description: Double mutants FP960 and FP965 and triple mutant FP990 all show improved refolding activity in crude lysates compared to the parental molecule, and therefore, all three mutant molecules were selected for further analysis. Proteins were expressed at the 1L scale in shake flasks as described in Materials and Methods, supra. Inclusion bodies (IBs) were obtained at a typical yield of 25% (±10%) wet IB mass/wet cell mass. Renatured L49-sFv-bL was purified by aminophenylboronate chromatography, dialyzed into 10 mM Na2PO4 and loaded onto Macro-prep HS resin. Fusion proteins were eluted in a stepwise fashion employing 250 mM NaCl. […] Mutants FP965 and FP990 were greater than 95% monomeric as shown by SEC-HPLC. However, FP960 contained only 55% monomer after cation exchange purification, possibly indicating a key role for the lysine residue at position H39 in refolding. The parental molecule, FP95, was present as 2 bands following aminophenylboronate chromatography. After ion-exchange chromatography only the upper of these 2 bands was eluted. A size exclusion chromatography (SEC) binding assay was developed in which a 2:1 ratio of purified p97 antigen to purified L49-sFv-bL was mixed and analyzed by HPLC-SEC (data not shown).

[2] = tested on: H3677 human melanoma xenografts; conditions: fusion protein 1 mg/kg i.v. followed 24 h later by C-Mel 100 mg/kg, q7dx3

| Molecule | antigen binding of refolded mutant compared to parental L49-sFv-bL (FP95) [1] | ka (Recombinant p97) | kd (Recombinant p97) | antigen binding in SEC assay (purified p97 antigen) | tumor response [2] |
| --- | --- | --- | --- | --- | --- |
| B1 | significant increases in antigen binding |  |  |  |  |
| B2 | significant increases in antigen binding |  |  |  |  |
| B3 | significant increases in antigen binding |  |  |  |  |
| B4 |  | 3.038(2) × 10^5 M^−1 s^−1 | 7.004(5) × 10^−4 s^−1 | bound antigen completely |  |
| B5 |  | 3.373(3) × 10^5 M^−1 s^−1 | 5.755(7) × 10^−4 s^−1 | bound completely to antigen | significant tumor regression |
| B6 |  | 4.476(1) × 10^5 M^−1 s^−1 | 7.819(3) × 10^−4 s^−1 |  | significant tumor regression |
| B7 |  | 3.640(4) × 10^5 M^−1 s^−1 | 6.383(7) × 10^−4 s^−1 |  |  |
| B8 |  | 4.000(6) × 10^5 M^−1 s^−1 | 7.65(1) × 10^−4 s^−1 |  |  |
